Experiments:
[1] = biological target: T1, human TREM2-Fc (human, UniProt Q9NZC2 19-174); experiment: SPR (Biacore T200), 37 C; TREM2-Fc on protein A chip, Fab in solution
T1 construct: also called hTREM2; not shown: Fc part (captured by anti-human IgG1 Fc or protein A)
T1 sequence: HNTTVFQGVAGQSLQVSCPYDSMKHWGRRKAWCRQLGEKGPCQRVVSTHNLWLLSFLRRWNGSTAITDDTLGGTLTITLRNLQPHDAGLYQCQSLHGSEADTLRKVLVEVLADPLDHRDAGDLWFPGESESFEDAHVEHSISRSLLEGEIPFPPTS
Description: The humanized heavy chain variants were tested for affinity by combining the heavy chain variants with the 3.10C2-L1 light chain. These variants were expressed as Fab fragments, purified by protein A chromatography, and tested for affinity for TREM2-Fc coated on a protein A chip with a Biacore™ T200 apparatus.

[2] = biological target: T2, soluble monomeric human TREM2 (human, UniProt Q9NZC2 19-174, limits assumed); experiment: SPR (Biacore T200), 37 C; IgG on anti-CH1 chip, soluble monomeric TREM2
T2 construct: Not the same as shed sTREM2; also called soluble monomeric TREM2
T2 sequence: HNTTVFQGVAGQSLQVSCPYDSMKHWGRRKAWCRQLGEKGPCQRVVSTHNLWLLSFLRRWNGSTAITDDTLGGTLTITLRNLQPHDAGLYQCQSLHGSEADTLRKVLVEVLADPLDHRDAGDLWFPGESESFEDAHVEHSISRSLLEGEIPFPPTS

[3] = biological target: T1, human TREM2-Fc; experiment: SPR (Biacore T200), 37 C; TREM2-Fc on protein A chip, soluble Fab
Description: (§1) Affinity of h3.10C2.v1 (FIGS. 9A-B) for human and cynomolgus TREM2 was determined by SPR in a Biacore™ T200 apparatus in two formats, both at 37° C. In one format TREM2-Fc was immobilized on protein A chips and soluble anti-TREM2 Fab fragments used as ligands. In the second format, anti-TREM2 IgG was immobilized on anti-CH1 Biacore™ chips and used soluble monomeric TREM2 as ligand.

[4] = biological target: T3, cynomolgus TREM2-Fc (cynomolgus monkey, UniProt A0A2K5UY34 49-204); experiment: as above
T3 construct: also called cyno TREM2; not shown: Fc part
T3 sequence: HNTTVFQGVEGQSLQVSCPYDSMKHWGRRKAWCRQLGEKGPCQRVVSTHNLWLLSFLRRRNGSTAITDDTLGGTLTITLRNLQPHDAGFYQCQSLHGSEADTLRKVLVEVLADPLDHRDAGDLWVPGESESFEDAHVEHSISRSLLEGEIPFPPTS
Description: as §1

[5] = biological target: T4, human TREM2 on cells (human, UniProt Q9NZC2 19-230); experiment: cell-based or functional assay
T4 sequence: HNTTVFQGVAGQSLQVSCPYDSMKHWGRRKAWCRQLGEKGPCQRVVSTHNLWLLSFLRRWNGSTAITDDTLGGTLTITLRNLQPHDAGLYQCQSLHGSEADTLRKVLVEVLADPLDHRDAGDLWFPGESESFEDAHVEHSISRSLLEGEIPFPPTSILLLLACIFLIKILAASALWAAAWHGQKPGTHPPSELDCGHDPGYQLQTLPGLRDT

[6] = biological target: T4, human TREM2 on cells; experiment: cell-based or functional assay; remark: listed apart in the source
[7] = biological target: T1, human TREM2-Fc; experiment: SPR (Biacore T200), 37 C; TREM2-Fc on anti-human IgG1 Fc chip, Fab in solution
Description: (§2) Briefly, clone variants were expressed as Fab fragments and purified by anti-CH1 affinity chromatography followed by size exclusion chromatography. TREM2-Fc antigens were immobilized on anti-human IgG1 Fc Biacore™ chips and soluble Para.09 variant and 3.10C2 clone Fab fragments were bound to immobilized TREM2 at 37° C.

[8] = biological target: T3, cynomolgus TREM2-Fc; experiment: as above
Description: as §2

B1: 3.10C2-H6/3.10C2-L1 Fab (Fab, V domains shown)
VH: EVQLVESGGGLVQPGGSLKLSCATSGFPFSNVWMHWVRQASGKGLEWVAHIKAKSDNYATYYAESVKGRFTISRDDSKNTIYLQMNSLKTEDTAVYYCTGLDYWGQGTTVTVSS
VL: DTVLTQSPLSLPVTPGEPASISCRSSKSLLGVRDITSLYWYLQKPGQSPQLLIYRMSNLASGVPDRFSGSGSETDFTLKISRVEAEDVGVYYCAQFLRYPYTFGQGTKVEIK
[1]
  koff: 0.0013 s⁻¹
  kon: 210000 M⁻¹ s⁻¹

B2: 3.10C2 IgG (rat variable regions; captured by anti-CH1 or anti-human Fab chips) (antibody, V domains shown)
VH: EVQLVETGGSLVQPGKSLKLTCATSGFPFSNVWMHWVRQSPEKQLEWIAHIKAKSDNYATYYAESVKGRFTISRDDSKTSIYLQMNSLKEDDTAIYYCTGLDYWGQGVMVTVSS
VL: DTVLTQAPLSLSVTPGESASISCRSSKSLLGVRDITSLYWYLQKPGKSPQLLIYRMSNLASGVPDRFSGSGSETDFTLKISEVETEDVGVYYCAQFLRYPYTFGPGTKLELK
notes: also called parental 3.10C2 clone; 3.10C2 control
[2]
  Kd: 0.12 nM
  koff: 9.6e-05 s⁻¹
  kon: 780000 M⁻¹ s⁻¹

B3: h3.10C2.v1 Fab (Fab, V domains shown)
VH: EVQLVESGGGLVQPGGSLKLSCATSGFPFSNVWMHWVRQASGKGLEWIAHIKAKSDNYATYYAESVKGRFTISRDDSKTTIYLQMNSLKTEDTAVYYCTGLDYWGQGTTVTVSS
VL: DVVMTQSPLSLPVTPGEPASISCRSSRSLLTSKGITSLYWYLQKPGQSPQLLIYRMSNLASGVPDRFSGSGSGTDFTLKISRVEAEDVGVYYCAQFLVYPYTFGQGTKVEIK
notes: also called 3.10C2-H1/3.27H7-L6
[3]
  Kd: 0.39 nM
  koff: 0.00057 s⁻¹
  kon: 1.5e+06 M⁻¹ s⁻¹
[4]
  Kd: 0.43 nM
  koff: 0.00062 s⁻¹
  kon: 1.4e+06 M⁻¹ s⁻¹

B4: 3.10C2-H2/3.10C2-L1 Fab (Fab, V domains shown)
VH: EVQLVESGGGLVQPGGSLKLSCATSGFPFSNVWMHWVRQASGKGLEWVGHIKAKSDNYATYYAESVKGRFTISRDDSKNTIYLQMNSLKTEDTAVYYCTGLDYWGQGTTVTVSS
VL: DTVLTQSPLSLPVTPGEPASISCRSSKSLLGVRDITSLYWYLQKPGQSPQLLIYRMSNLASGVPDRFSGSGSETDFTLKISRVEAEDVGVYYCAQFLRYPYTFGQGTKVEIK
[1]
  koff: 0.0059 s⁻¹
  kon: 520000 M⁻¹ s⁻¹

B5: hPara.09.v2 Q100P/V104L (antibody, human IgG1, V domains shown)
VH: EVQLVESGGGLVQPGGSLKLSCATSGFPFSNVWLHWVRQASGKGPEWVAHIKAKSDNYATYYAESVKGRFTISRDDSKNTVYLQMNSLKTEDTAVYYCTDILEYWGQGTLVTVSS
VL: DVVMTQSPLSLPVTPGEPASISCRSSRSLLTSKGITSLYWYLQKPGQSPQLLIYRMSNLASGIPDRFSGSGSGTDFTLKISRVEAEDVGVYYCAQFLVYPYTFGPGTKLEIK
[5]
  EC50, average X04 plaque intensity, human iPSC-derived microglia plaque assay (FIG. 24C): 40 nM
  EC50, survival of iPSC-derived microglia (FIG. 23E): 0.19 nM
  EC50, total Abeta plaque intensity, human iPSC-derived microglia plaque assay (FIG. 24B): 770 nM
  phospho-SYK/total SYK relative to anti-gD control, iPSC-derived microglia, 1 hour: 2 fold
  phospho-SYK/total SYK relative to anti-gD control, iPSC-derived microglia, 4 hours: > 10 fold
[6]
  EC50, Jurkat NFAT luciferase reporter cells: 0.0232 µg/mL
  IC50, TREM2 shedding inhibition in Jurkat-NFAT reporter cells (sTREM2 ELISA): 0.114 µg/mL

B6: h3.10C2.v1 hIgG1 N297G (antibody, V domains shown)
VH: EVQLVESGGGLVQPGGSLKLSCATSGFPFSNVWMHWVRQASGKGLEWIAHIKAKSDNYATYYAESVKGRFTISRDDSKTTIYLQMNSLKTEDTAVYYCTGLDYWGQGTTVTVSS
VL: DVVMTQSPLSLPVTPGEPASISCRSSRSLLTSKGITSLYWYLQKPGQSPQLLIYRMSNLASGVPDRFSGSGSGTDFTLKISRVEAEDVGVYYCAQFLVYPYTFGQGTKVEIK
notes: Human IgG1 N297G; also called h3.10C2.v1.huIgG1.N297G
[5]
  EC50, average X04 plaque intensity, human iPSC-derived microglia plaque assay (FIG. 24C): 11 nM
  EC50, survival of iPSC-derived microglia (FIG. 23E): 0.35 nM
  EC50, total Abeta plaque intensity, human iPSC-derived microglia plaque assay (FIG. 24B): 130 nM
[6]
  EC50, Jurkat NFAT luciferase reporter cells: 0.076 µg/mL
  IC50, TREM2 shedding inhibition in Jurkat-NFAT reporter cells (sTREM2 ELISA): 0.975 µg/mL
[2]
  Kd: 0.42 nM
  koff: 0.00035 s⁻¹
  kon: 840000 M⁻¹ s⁻¹

B7: hPara.09.v2 Fab (Fab, V domains shown)
VH: EVQLVESGGGLVQPGGSLKLSCATSGFPFSNVWLHWVRQASGKGPEWVAHIKAKSDNYATYYAESVKGRFTISRDDSKNTVYLQMNSLKTEDTAVYYCTDILEYWGQGTLVTVSS
VL: DVVMTQSPLSLPVTPGEPASISCRSSRSLLTSKGITSLYWYLQKPGQSPQLLIYRMSNLASGIPDRFSGSGSGTDFTLKISRVEAEDVGVYYCAQFLVYPYTFGQGTKVEIK
notes: also called Para.09-H5/3.27H7-L6
[3]
  Kd: 0.021 nM
  koff: 6.1e-05 s⁻¹
  kon: 3e+06 M⁻¹ s⁻¹
[4]
  Kd: 0.022 nM
  koff: 6.3e-05 s⁻¹
  kon: 2.9e+06 M⁻¹ s⁻¹

B8: Para.09 Fab with the 3.27H7 light chain (Fab, V domains shown)
VH: EVQLVETGGSLVQPGKSLRLTCATSGFPFSNVWLHWVRQSPEKHPEWVAHIKAKSDNYATYYAESVKGRFTISRDDSKSSVFLQMNSLKEEDTAIYYCTDILEYWGQGTLVTVSS
VL: DVVLTQAPLSVSVTPGESASISCRSSRSLLTSKGITSLYWYLQKPGMSPHLLIYRMSNLASGIPDRFSGSGSETDFTLKISEVEPEDVGVYYCAQFLVYPYTFGAGTKLELK
notes: Fab fragment; also called Para.09 (3.27H7); Para.09-L27H7
[3]
  Kd: 0.015 nM
  koff: 3.5e-05 s⁻¹
  kon: 2.3e+06 M⁻¹ s⁻¹
[4]
  Kd: 0.018 nM
  koff: 4.1e-05 s⁻¹
  kon: 2.3e+06 M⁻¹ s⁻¹
[7]
  Kd: 0.0042 nM
  koff: 2.7e-05 s⁻¹
  kon: 6.3e+06 M⁻¹ s⁻¹
[8]
  Kd: 0.0025 nM
  koff: 1.2e-05 s⁻¹
  kon: 4.8e+06 M⁻¹ s⁻¹

B9: Para.09 Fab with the 3.18E5 light chain (Fab, V domains shown)
VH: EVQLVETGGSLVQPGKSLRLTCATSGFPFSNVWLHWVRQSPEKHPEWVAHIKAKSDNYATYYAESVKGRFTISRDDSKSSVFLQMNSLKEEDTAIYYCTDILEYWGQGTLVTVSS
VL: DTVLTQAPLSVSVTPGESASISCRSNKSLLGIRDITSLYWYLQKPGKSPQLLIYRMSNLASGVPDRFSGSGSETDFTLKISEVETEDVGVYYCAQFLRYPYTFGPGTKLELK
notes: also called Para.09 (3.18E5)
[7]
  Kd: 0.005 nM
  koff: 2.8e-05 s⁻¹
  kon: 5.6e+06 M⁻¹ s⁻¹
[8]
  Kd: 0.0024 nM
  koff: 8.9e-06 s⁻¹
  kon: 3.8e+06 M⁻¹ s⁻¹

B10: Para.09 Fab with the 3.10C2 light chain (Fab, V domains shown)
VH: EVQLVETGGSLVQPGKSLRLTCATSGFPFSNVWLHWVRQSPEKHPEWVAHIKAKSDNYATYYAESVKGRFTISRDDSKSSVFLQMNSLKEEDTAIYYCTDILEYWGQGTLVTVSS
VL: DTVLTQAPLSLSVTPGESASISCRSSKSLLGVRDITSLYWYLQKPGKSPQLLIYRMSNLASGVPDRFSGSGSETDFTLKISEVETEDVGVYYCAQFLRYPYTFGPGTKLELK
notes: also called Para.09 (3.10C2)
[7]
  Kd: 0.0038 nM
  koff: 2.7e-05 s⁻¹
  kon: 7.1e+06 M⁻¹ s⁻¹
[8]
  Kd: 0.0016 nM
  koff: 7.8e-06 s⁻¹
  kon: 4.8e+06 M⁻¹ s⁻¹

B11: Para.09 Fab with the 3.50G1 light chain (Fab, V domains shown)
VH: EVQLVETGGSLVQPGKSLRLTCATSGFPFSNVWLHWVRQSPEKHPEWVAHIKAKSDNYATYYAESVKGRFTISRDDSKSSVFLQMNSLKEEDTAIYYCTDILEYWGQGTLVTVSS
VL: DTVLTQAPLSVSVTPGESASISCRSNKSLLGIRDITSLYWFLQKPGKSPQLLIYRMSNLASGVPDRFSGSGSETDFTLKISEVETEDVGVYYCAQFLRYPYTFGPGTKLELQ
notes: also called Para.09 (3.50G1)
[7]
  Kd: 0.0011 nM
  koff: 5.8e-06 s⁻¹
  kon: 5.1e+06 M⁻¹ s⁻¹
[8]
  Kd: 0.002 nM
  koff: 7.9e-06 s⁻¹
  kon: 3.9e+06 M⁻¹ s⁻¹
